The supplement of paper PMC10567573

B1: FAM189A2 (parent)
chain: PRCDLVDLGEGKICFCCEEFQPAK
B2: ESR2 (parent)
chain: KSCQACRLRKCYEVGMVKCGSRRE

Variants of: B1
Test: protein stability index of a GFP-peptide fusion (GPS, HEK-293T) (PSI 1-6); higher = more stable
Details: c terminus: a fixed tail appended
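Note: lentivirally expressed fusions sorted by FACS into six bins by GFP to DsRed ratio, PSI derived from sequencing read proportions per bin multiplied by bin number.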

Protein stability index of substitutions, site by site:
A23: T 2.79 | V 3.29 | W 3.56 | Y 2.28
K24: A 2.66 | C 3.39 | D 3.18 | E 3.81 | F 2.23 | G 3.1 | H 2.52 | I 2.48 | L 3.26 | M 2.32 | N 3.37 | P 3.05 | Q 2.25 | R 2.89 | S 2.72 | T 3 | V 3.06 | W 1.99 | Y 2.52

Variants of: B2
Test: as above
Details: c terminus: a fixed tail appended

Protein stability index of substitutions, site by site:
K1: A 2.89 | C 2.56 | D 1.75 | E 1.72 | F 2.31 | G 2.71 | H 2.5 | I 2.78 | L 1.95 | M 1.87 | N 1.59 | P 2.35 | Q 2.42 | R 2.22 | S 3.19 | T 2.1 | V 2.31 | W 1.65 | Y 1.45
S2: A 1.6 | C 1.54 | D 1.98 | E 1.96 | F 1.45 | G 1.96 | H 2.23 | I 1.46 | K 2.02 | L 1.56 | M 1.78 | N 1.98 | P 1.86 | Q 1.96 | R 2.43 | T 1.92 | V 1.92 | W 1.91 | Y 2.94
C3: A 2.66 | D 2.69 | E 3.21 | F 2.2 | G 2.97 | H 2.65 | I 2.39 | K 2.59 | L 2.57 | M 2.48 | N 2.71 | P 2.92 | Q 2.94 | S 3.24 | T 2.57 | V 2.54 | W 1.85 | Y 2.19
Q4: A 1.55 | C 1.72 | D 1.81 | E 2.1 | F 1.32 | G 1.58 | H 1.83 | I 1.88 | K 1.84 | L 2.15 | M 2.18 | N 1.86 | P 1.68 | R 2.15 | S 2.11 | T 2.17 | V 2.04 | W 1.39 | Y 1.9
A5: C 2.08 | D 2.09 | E 2.39 | F 1.55 | G 1.84 | H 2.15 | I 2.34 | K 2.48 | L 2.29 | M 1.36 | N 1.81 | P 2.3 | Q 2.11 | R 3.08 | S 2 | T 2.11 | V 1.93 | W 1.77 | Y 1.64
C6: A 2.57 | D 2.73 | E 2.38 | F 1.96 | G 2.88 | H 2.81 | I 2.6 | K 3.22 | L 2.48 | M 2.44 | N 2.94 | P 3.03 | Q 2.94 | R 3.05 | S 2.25 | T 2.62 | V 2.42 | W 2 | Y 2.28
R7: A 1.32 | C 2.5 | D 2.06 | E 2.69 | F 2.29 | G 2 | H 1.81 | I 1.64 | K 2.03 | L 1.74 | M 1.48 | N 1.77 | P 2.17 | Q 1.66 | S 1.89 | T 2.46 | V 1.89 | W 1.89 | Y 2.58
L8: A 2.17 | C 2.61 | D 1.61 | E 2.47 | F 2.21 | G 2.36 | H 2.4 | I 1.64 | K 2.66 | M 2.24 | N 2.74 | P 2.27 | Q 1.84 | R 2.18 | S 2.83 | T 2.11 | V 1.73 | W 1.87 | Y 2.35
R9: A 1.1 | C 1.61 | D 1.75 | E 2.03 | F 2.56 | G 1.95 | H 1.92 | I 1.82 | K 2.04 | L 2.14 | M 1.93 | N 1.88 | P 2.35 | Q 1.99 | S 1.8 | T 2.66 | V 2.13 | W 1.93 | Y 2.38
K10: A 1.81 | C 1.5 | D 1.49 | E 2.12 | F 1.26 | G 1.78 | H 2.16 | I 1.98 | L 2.24 | M 1.48 | N 2.27 | P 1.94 | Q 1.68 | R 1.56 | S 2.69 | T 2.23 | V 1.89 | W 1.74 | Y 1.79
C11: A 1.82 | D 2.72 | E 1.57 | F 2.52 | G 2.4 | H 1.74 | I 2.19 | K 2.3 | L 2.31 | M 2.6 | N 1.78 | P 1.38 | Q 1.79 | R 2.5 | S 1.68 | T 2.29 | V 2.47 | W 2
Y12: A 2.9 | C 2.78 | D 1.83 | E 2.85 | F 1.77 | G 2.36 | H 2.03 | I 1 | K 2.11 | L 1.89 | M 1.41 | N 2.43 | P 2.13 | Q 2.06 | R 1.9 | S 2.29 | T 2.77 | V 2.19 | W 2.24
E13: A 1.93 | C 2.46 | D 1.88 | F 2.23 | G 2.3 | H 2.89 | I 2.03 | K 1.99 | L 1.64 | M 1.7 | N 1.93 | P 1.69 | Q 1.7 | R 1.95 | S 2.42 | T 1.96 | V 1.6 | W 1.49 | Y 1.38
V14: A 2.1 | C 2.17 | D 2.17 | E 1.9 | F 1.57 | G 1.94 | H 4.01 | I 1.67 | K 2.5 | L 1.49 | M 1.77 | N 2.34 | P 1.62 | Q 2.17 | R 2.27 | S 2.52 | T 1.96 | W 1.92 | Y 1.7
G15: A 1.69 | C 2.25 | D 2.19 | E 1.38 | F 2.41 | H 1.86 | I 1.79 | K 2.18 | L 1.55 | M 1.96 | N 1.97 | P 2.35 | Q 1.49 | R 1.91 | S 1.34 | T 2.03 | V 1.25 | Y 1.81
M16: A 1.76 | C 3.01 | D 1.66 | E 1.84 | F 2.1 | G 2 | H 2.82 | I 1.13 | K 2.67 | L 2.22 | N 2.15 | P 1.96 | Q 1.95 | R 2.4 | S 2.44 | T 2.14 | V 1.74 | W 1.88 | Y 1.85
V17: A 2.41 | C 3.72 | D 1.6 | E 1.89 | F 1.94 | G 2.27 | H 2.97 | I 2.21 | K 2.54 | L 1.61
